The values below are quoted from earlier work in article PMC2846628.

The data set deals with Cdc25 phosphopeptide (Homo sapiens). The data set is described as follows: NMR titration.

As a reminder, the Kd is a measure of binding affinity in units of concentration. On to Pin1 1-163 (from UniProt Q13526), for which the Kd was 8 µM.
